Test results as given in the supplement of paper PMC10126150.
± gives the standard deviation of the averaged measurements.

System: ATP
Assay: switch fluorescence ratio, 500 uM ATP over buffer (Cy3 cluster intensity, sum of 5 cycles each) (fold (ratio)); higher = stronger signal-on switching upon ATP binding; sequences stand for … in TCGTCGGCAGCGTCAGATGTGTATAAGAGACAGTTTTTTTTTTTTTTTTTTTTTTTTT…TC
Conditions: aptamer strand: ATP DNA aptamer (quencher-CACCTGGGGGAGTATTGCGGAGGAAGG + anchor), 100 nM annealed; ATP concentration: 500 uM
Method in brief: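 Imaging in selection buffer was followed by imaging after 15 min with 500 uM ATP at 22 °C, for Cy3-labelled switching-strand clusters annealed to 100 nM quencher-labelled ATP aptamer on a modified Illumina MiSeq flow-cell. Five of these buffer/ATP cycles ran, separated by NaOH stripping and re-annealing. The fluorescence ratio per cluster is summed target-cycle over summed buffer-cycle Cy3 intensity, averaged per switch-domain sequence; clusters outside 100-1000 RFU were removed.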
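Note: ATP exposure 15 min at 22 °C before imaging.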

Sequence | switch fluorescence ratio
AATCCGAGGA | 1.05 ± 0.054
AATCCTGTTT | 1.01 ± 0.067
AATCCTTGAG | 1.02 ± 0.034
AATCGAAAGA | 1.02 ± 0.039
AATCGGAATT | 1.01 ± 0.03
AATCGGATGG | 1.02 ± 0.037
AATCGGCGCT | 1.01 ± 0.045
AATCGGGTTT | 0.953 ± 0.02
AATCGGTTAG | 1 ± 0.03
AATCGGTTGT | 0.9815 ± 0.005
AATCGTTAAG | 0.97 ± 0.015
AATCGTTGAA | 1.01 ± 0.017
AATCTAAGGT | 0.983 ± 0.064
AATCTCATAG | 1.01 ± 0.012
AATCTCCATT | 0.982 ± 0.025
AATCTGCCCA | 1.04 ± 0.015
AATCTGCCTG | 0.99 ± 0.011
AATCTGGGAG | 0.996 ± 0.015
AATCTGTTAT | 0.992 ± 0.033
AATCTTGATT | 1.2 ± 0.24
AATCTTGGGT | 0.972 ± 0.012
AATGAAAGCC | 1.26 ± 0.39

Sequence | switch fluorescence ratio
AATGAACTAG | 1.01 ± 0.053
AATGAAGTCC | 1.054 ± 0.0038
AATGAAGTCG | 0.997 ± 0.064
AATGACGATG | 1.02 ± 0.029
AATGAGGGGA | 1 ± 0.013
AATGAGGTCG | 1.002 ± 0.0046
AATGATATGA | 1.02 ± 0.05
AATGATCCAG | 0.983 ± 0.032
AATGATGTGG | 0.998 ± 0.021
AATGATTGGG | 0.977 ± 0.02
AATGATTGTT | 0.992 ± 0.03
AATGCGAGAA | 0.973 ± 0.024
AATGCTGGGG | 1.05 ± 0.081
AATGGAACGG | 1.02 ± 0.032
AATGGAGGAG | 1.01 ± 0.023
AATGGATAAC | 0.9862 ± 0.0045
AATGGATTTG | 0.995 ± 0.013
AATGGATTTT | 0.982 ± 0.013
AATGGCCGGC | 0.987 ± 0.014
AATGGCGGTA | 0.9928 ± 0.0082
AATGGCGTTG | 1 ± 0.057
AATGGCTTTG | 1.029 ± 0.0062

Sequence | switch fluorescence ratio
AATGGGAAGT | 0.991 ± 0.019
AATGGGATAG | 1.02 ± 0.021
AATGGGATTC | 0.9881 ± 0.009
AATGGGCAAG | 1.05 ± 0.015
AATGGGCCCT | 0.979 ± 0.047
AATGGGCGGA | 0.995 ± 0.017
AATGGGCGTC | 0.9902 ± 0.0069
AATGGGGCCT | 1.03 ± 0.02
AATGGGGCGG | 1.03 ± 0.034
AATGGGGTTT | 0.9689 ± 0.0085
AATGGGTATT | 0.987 ± 0.026
AATGGGTCGT | 0.9673 ± 0.0077
AATGGGTTTT | 0.976 ± 0.011
AATGGTAATA | 0.986 ± 0.025
AATGGTATTC | 0.998 ± 0.025
AATGGTCGTG | 0.998 ± 0.02
AATGGTGGCT | 1.11 ± 0.099
AATGGTGGGG | 0.9912 ± 0.0053
AATGGTGGGT | 1.01 ± 0.036
AATGGTGGTC | 0.998 ± 0.012
AATGGTGGTT | 0.996 ± 0.03
AATGGTTATC | 0.9753 ± 0.0046

Sequence | switch fluorescence ratio
AATGGTTGGT | 0.994 ± 0.016
AATGGTTTGC | 1.13 ± 0.23
AATGTAAACG | 0.978 ± 0.027
AATGTAGGAC | 1.018 ± 0.0026
AATGTAGGCT | 1.03 ± 0.027
AATGTCGACG | 0.994 ± 0.036
AATGTGCGTT | 0.993 ± 0.04
AATGTGGCGC | 0.9643 ± 0.0043
AATGTGTCCC | 0.991 ± 0.041
AATGTGTGCT | 0.949 ± 0.0099
AATGTTACGG | 1.061 ± 0.0098
AATGTTATAT | 1.01 ± 0.014
AATGTTCAGG | 0.995 ± 0.021
AATGTTGAAG | 0.987 ± 0.034
AATGTTTAAA | 0.9764 ± 0.0016
AATGTTTCTG | 0.998 ± 0.038
AATGTTTTTT | 1 ± 0.016
AATTAATGGT | 0.978 ± 0.011
AATTAATTAA | 1.004 ± 0.01
